Here are results for 4 molecules from patent US20230080842A1 (WUHAN YZY BIOPHARMA, published 2023).

Common to all, as to assay: ELISA, plate coated with His-tagged antigen
One assay deals with T1, Human TIGIT (human, UniProt Q495A1 22-141).
T1 construct: also called TIGIT antigen; not shown: His tag
T1 sequence: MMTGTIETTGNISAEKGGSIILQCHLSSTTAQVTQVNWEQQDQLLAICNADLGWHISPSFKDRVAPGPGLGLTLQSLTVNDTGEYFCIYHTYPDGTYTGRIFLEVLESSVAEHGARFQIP

The target in another assay is T2, Human PD-1 (human, UniProt Q15116 25-170).
T2 construct: also called PD-1 antigen; not shown: His tag

In another assay the target is T3, Human VEGFA (human, UniProt P15692 207-395).
T3 construct: also called VEGF antigen; not shown: His tag
T3 sequence: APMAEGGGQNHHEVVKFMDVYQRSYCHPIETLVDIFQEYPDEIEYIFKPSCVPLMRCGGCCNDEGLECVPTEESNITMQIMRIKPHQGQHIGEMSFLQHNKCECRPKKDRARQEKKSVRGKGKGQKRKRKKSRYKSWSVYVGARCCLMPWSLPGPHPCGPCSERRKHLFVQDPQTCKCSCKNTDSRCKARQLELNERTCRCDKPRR

The target in the next assay is T4, Human TGF-β1 (human, UniProt P01137 279-390).
T4 construct: also called TGF-01; TGF-β1 antigen; not shown: His tag

In general, EC50 refers to the concentration at which the effect is half-maximal.

T2 sequence (Q15116 25-170): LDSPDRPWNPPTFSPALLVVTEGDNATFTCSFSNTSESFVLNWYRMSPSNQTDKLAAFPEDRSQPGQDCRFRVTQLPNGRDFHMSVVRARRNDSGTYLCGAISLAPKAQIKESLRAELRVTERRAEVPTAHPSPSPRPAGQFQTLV
T4 sequence (P01137 279-390 limits assumed): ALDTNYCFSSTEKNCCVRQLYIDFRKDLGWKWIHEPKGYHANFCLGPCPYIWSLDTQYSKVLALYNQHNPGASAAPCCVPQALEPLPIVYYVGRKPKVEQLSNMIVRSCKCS
Experimental for Human PD-1: (§1) 2) addition of antibody: according to the experimental design, operation was performed at room temperature, and the antibody was diluted in gradient with 1% BSA in PBS. […] The diluted antibody was added into wells of microtiter plate at 200 μl/well, incubated at room temperature for 2h, and then the supernatant was discarded;
Experimental for Human TGF-β1: as §1
Experimental for Human TIGIT: as §1
Experimental for Human VEGFA: as §1

B1: 10A7mAb (antibody, human IgG1, kappa, V domains shown)
VH: EVQLVESGGGLTQPGKSLKLSCEASGFTFSSFTMHWVRQSPGKGLEWVAFIRSGSGIVFYADAVRGRFTISRDNAKNLLFLQMNDLKSEDTAMYYCARRPLGHNTFDSWGQGTLVTVSS
VL: DIVMTQSPSSLAVSPGEKVTMTCKSSQSLYYSGVKENLLAWYQQKPGQSPKLLIYYASIRFTGVPDRFTGSGSGTDYTLTITSVQAEDMGQYFCQQGINNPLTFGDGTKLEIKR
notes: anti-TIGIT monoclonal antibody, human IgG1 constant domains, kappa
B1: the EC50 with Human TIGIT came to 0.0831 nM.

B2: Y206-B2 (bispecific antibody, human IgG1, kappa)
light: not shown
heavy: EVQLVESGGGLVQPGGSLRLSCAASGFTISDYWIHWVRQAPGKGLEWVAGITPAGGYTYYADSVKGRFTISADTSKNTAYLQMNSLRAEDTAVYYCARFVFFLPYAMDYWGQGTLVTVSSASTKGPSVFPLAPSSKSTSGGTAALGCLVKDYFPEPVTVSWNSGALTSGVHTFPAVLQSSGLYSLSSVVTVPSSSLGTQTYICNVNHKPSNTKVDKKVEPKSCDKTHTCPPCPAPPVAGPSVFLFPPKPKDTLMISRTPEVTCVVVDVSHEAPEVQFNWYVDGVEVHNAKTKPREEQFNSTFRVVSVLTVVHQDWLNGKEYKCKVSNKGLPAPIEKTISKTKGQPREPQVYTLPPSRDELTKNQVSLTCLVKGFYPSDIAVEWESNGQPENNYKTTPPVLDSDGSFFLYSKLTVDKSRWQQGNVFSCSVMHEALHNHYTQKSLSLSPGAGGGGSGGGGSGGGGSGEIVLTQSPATLSLSPGERATLSCRASQSVSSYLAWYQQKPGQAPRLLIYDASNRATGIPARFSGSGSGTDFTLTISSLEPEDFAVYYCQQSSNWPRTFGQGTKVEIKGGGGSGGGGSGGGGSQVQLVESGGGVVQPGRSLRLDCKASGITFSNSGMHWVRQAPGKGLEWVAVIWYDGSKRYYADSVKGRFTISRDNSKNTLFLQMNSLRAEDTAVYYCATNDDYWGQGTLVTVSS
notes: structure 2 IgG(H)-ScFv, B series; IgG G631 (anti-VEGF), scFv 5C4 (anti-PD-1)
For B2, the EC50 with Human PD-1 is 0.312 nM; in the assay with Human VEGFA, 0.0596 nM.

B3: Y206-A2 (bispecific antibody, human IgG1, kappa)
light: not shown
heavy: EVQLVESGGGLVQPGGSLRLSCAASGFTISDYWIHWVRQAPGKGLEWVAGITPAGGYTYYADSVKGRFTISADTSKNTAYLQMNSLRAEDTAVYYCARFVFFLPYAMDYWGQGTLVTVSSASTKGPSVFPLAPSSKSTSGGTAALGCLVKDYFPEPVTVSWNSGALTSGVHTFPAVLQSSGLYSLSSVVTVPSSSLGTQTYICNVNHKPSNTKVDKKVEPKSCDKTHTCPPCPAPPVAGPSVFLFPPKPKDTLMISRTPEVTCVVVDVSHEAPEVQFNWYVDGVEVHNAKTKPREEQFNSTFRVVSVLTVVHQDWLNGKEYKCKVSNKGLPAPIEKTISKTKGQPREPQVYTLPPSRDELTKNQVSLTCLVKGFYPSDIAVEWESNGQPENNYKTTPPVLDSDGSFFLYSKLTVDKSRWQQGNVFSCSVMHEALHNHYTQKSLSLSPGAGGGGSGGGGSGGGGSGQVQLVESGGGVVQPGRSLRLDCKASGITFSNSGMHWVRQAPGKGLEWVAVIWYDGSKRYYADSVKGRFTISRDNSKNTLFLQMNSLRAEDTAVYYCATNDDYWGQGTLVTVSSGGGGSGGGGSGGGGSEIVLTQSPATLSLSPGERATLSCRASQSVSSYLAWYQQKPGQAPRLLIYDASNRATGIPARFSGSGSGTDFTLTISSLEPEDFAVYYCQQSSNWPRTFGQGTKVEIK
notes: structure 2 IgG(H)-ScFv, A series; IgG G631 (anti-VEGF), scFv 5C4 (anti-PD-1)
Regarding B3, the EC50 stood at 0.45 nM with Human PD-1 and 0.063 nM with Human VEGFA.

B4: 3G12mAb (antibody, human IgG1, kappa, V domains shown)
VH: QVQLVQSGAEVKKPGSSVKVSCKASGYTFSSNVISWVRQAPGQGLEWMGGVIPIVDIANYAQRFKGRVTITADESTSTTYMELSSLRSEDTAVYYCASTLGLVLDAMDYWGQGTLVTVSS
VL: ETVLTQSPGTLSLSPGERATLSCRASQSLGSSYLAWYQQKPGQAPRLLIYGASSRAPGIPDRFSGSGSGTDFTLTISRLEPEDFAVYYCQQYADSPITFGQGTRLEIKR
notes: anti-TGF-β monoclonal antibody, human IgG1 constant domains, kappa
Regarding B4, the midpoint of the response with Human TGF-β1, the EC50, lay at 0.0026 nM.
